Experimental data taken from PMC10296906, “GPCR Binding and JNK3 Activation by Arrestin-3 Have Different Structural Requirements” (Cells, 2023).

Biological target: T1, LgBiT-tagged human M2 muscarinic acetylcholine receptor (human, UniProt P08172 1-466)
T1 construct: M2 muscarinic acetylcholine receptor, human, Gi-coupled; stimulated with 10 µM carbachol; also called M2R; source: HEK293 arrestin-2/3 knockout cells, transfected (pcDNA3), in live cells; not shown: LgBiT (17.6 kDa, with the 4-amino acid linker APAG), C-terminal, kept
T1 sequence (looked up): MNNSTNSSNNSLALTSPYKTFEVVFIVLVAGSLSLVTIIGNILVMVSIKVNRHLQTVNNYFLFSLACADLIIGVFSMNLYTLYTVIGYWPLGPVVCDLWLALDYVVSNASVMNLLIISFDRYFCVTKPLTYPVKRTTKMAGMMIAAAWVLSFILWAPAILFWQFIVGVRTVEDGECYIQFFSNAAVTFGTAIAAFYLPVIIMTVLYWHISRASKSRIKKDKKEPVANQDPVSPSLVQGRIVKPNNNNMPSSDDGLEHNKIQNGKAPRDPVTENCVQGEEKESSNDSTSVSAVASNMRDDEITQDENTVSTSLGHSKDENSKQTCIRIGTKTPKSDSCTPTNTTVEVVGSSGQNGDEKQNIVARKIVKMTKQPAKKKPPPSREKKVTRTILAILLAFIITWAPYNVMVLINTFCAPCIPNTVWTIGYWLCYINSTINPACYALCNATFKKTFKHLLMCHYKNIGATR
Experiment: split reporter (BiFC, NanoBiT); NanoBiT complementation in live HEK293 arrestin-2/3 KO cells: SmBiT-arrestin-3 and receptor-LgBiT co-expressed; luminescence read 20 min with nanoGlo substrate, then agonist added (10 µM isoproterenol for β2AR, 10 µM carbachol for M2R) and read 40 min; signal normalized to the basal signal without agonist
Conditions: partners not purified

B1: SmBiT-tagged WT arrestin-3 (natural protein, UniProt P32120-2 1-409, looked up)
chain: MGEKPGTRVFKKSSPNCKLTVYLGKRDFVDHLDKVDPVDGVVLVDPDYLKDRKVFVTLTCAFRYGREDLDVLGLSFRKDLFIANYQAFPPTPNPPRPPTRLQERLLRKLGQHAHPFFFTIPQNLPCSVTLQPGPEDTGKACGVDFEIRAFCAKSLEEKSHKRNSVRLVIRKVQFAPEKPGPQPSAETTRHFLMSDRSLHLEASLDKELYYHGEPLNVNVHVTNNSTKTVKKIKVSVRQYADICLFSTAQYKCPVAQVEQDDQVSPSSTFCKVYTITPLLSNNREKRGLALDGKLKHEDTNLASSTIVKEGANKEVLGILVSYRVKVKLVVSRGGDVSVELPFVLMHPKPHDHIALPRPQSAAPETDAPVDTNLIEFETNYATDDDIVFEDFARLRLKGLKDEDYDDQFC
notes: also called arr3; WT arr3; source: HEK293 arrestin-2/3 knockout cells, transfected (pcDNA3), in live cells
  agonist-induced luminescence, fold over basal: ~8 fold
